Molecular target: the molecule itself
Assay: SEC; 50 to 100 µg of each affinity purified His-tagged enzyme alone on Superdex 200 10/300 GL, 0.2 mL/min, 20 mM Tris-HCl pH 7.6, 150 mM NaCl; fractions followed by absorbance at 280 nm

B1: His-tagged recombinant spermidine synthase 1 (SPDS1) (enzyme, Arabidopsis thaliana, UniProt Q9ZUB3 1-334, looked up)
chain: MDAKETSATDLKRPREEDDNGGAATMETENGDQKKEPACFSTVIPGWFSEMSPMWPGEAHSLKVEKVLFQGKSDYQDVIVFQSATYGKVLVLDGVIQLTERDECAYQEMITHLPLCSIPNPKKVLVIGGGDGGVLREVARHASIEQIDMCEIDKMVVDVSKQFFPDVAIGYEDPRVNLVIGDGVAFLKNAAEGSYDAVIVDSSDPIGPAKELFEKPFFQSVARALRPGGVVCTQAESLWLHMDIIEDIVSNCREIFKGSVNYAWTSVPTYPSGVIGFMLCSTEGPDVDFKHPLNPIDESSSKSNGPLKFYNAEIHSAAFCLPSFAKKVIESKAN
notes: Arabidopsis spermidine synthase 1 (SPDS1, At1g23820); The insert has no stop codon, so a C-terminal extension from the vector is likely (surmised); also called recombinant His-tagged aminopropyltransferase
stoichiometry N: 2

B2: His-tagged recombinant spermidine synthase 2 (SPDS2) (enzyme, Arabidopsis thaliana, UniProt O48661 1-340, looked up)
chain: MSSTQEASVTDLPVKRPREAEEDNNGGAMETENGGGEIKEPSCMSSIIPGWFSEISPMWPGEAHSLKVEKILFQGKSDYQDVIVFQSATYGKVLVLDGVIQLTERDECAYQEMITHLPLCSISNPKKVLVIGGGDGGVLREVARHSSVEQIDICEIDKMVVDVAKQYFPNVAVGYEDPRVNLIIGDGVAFLKNAAEGTYDAVIVDSSDPIGPAKELFEKPFFESVNRALRPGGVVCTQAESLWLHMDIIEDIVSNCRDIFKGSVNYAWTSVPTYPSGVIGFMLCSSEGPQVDFKKPVSLIDTDESSIKSHCPLKYYNAEIHSAAFCLPSFAKKVIDSKAN
notes: Arabidopsis spermidine synthase 2 (SPDS2, At1g70310); The Protease 3C site lies before the start ATG, and no cleavage is reported; The insert has no stop codon, so a C-terminal extension from the vector is likely (surmised); also called recombinant His-tagged aminopropyltransferase
stoichiometry N: 2

B3: His-tagged recombinant spermine synthase (SPMS) (enzyme, Arabidopsis thaliana, UniProt Q94BN2 1-359, looked up)
chain: MEGDVGIGLVCQNTMDGKASNGNGLEKTVPSCCLKAMACVPEDDAKCHSTVVSGWFSEPHPRSGKKGGKAVYFNNPMWPGEAHSLKVEKVLFKDKSDFQEVLVFESATYGKVLVLDGIVQLTEKDECAYQEMIAHLPLCSISSPKNVLVVGGGDGGVLREISRHSSVEVIDICEIDKMVIDVSKKFFPELAVGFDDPRVQLHIGDAAEFLRKSPEGKYDAIIVDSSDPVGPALALVEKPFFETLARALKPGGVLCNMAESMWLHTHLIEDMISICRQTFKSVHYAWSSVPTYPSGVIGFVLCSTEGPAVDFKNPINPIEKLDGAMTHKRELKFYNSDMHRAAFALPTFLRREVASLLAS
notes: Arabidopsis spermine synthase (SPMS, At5g53120); The Protease 3C site lies before the start ATG, and no cleavage is reported; The insert has no stop codon, so a C-terminal extension from the vector is likely (surmised); also called recombinant His-tagged aminopropyltransferase
stoichiometry N: 2

From PMC3466176, “Aminopropyltransferases Involved in Polyamine Biosynthesis Localize Preferentially in the Nucleus of Plant Cells” (PLoS ONE, 2012)
